Our source for the MOLM-13 T cell apoptosis assay and Kd values is patent US20220204629A1.

Test [1] addresses recombinant, full length human Galectin-9 (R&D Systems 2045-GA) (human) (UniProt O00182). Nature of the test: cell-based or functional assay.
The target of test [2] is mouse Galectin-9 CRD2 (residues 226-353) (mouse) (UniProt O08573). Kind of test: bead based binding, mouse CRD2.
Test [3] shares this target. Kind of test: SPR, One Step method, Pioneer; mouse CRD2.
Test [4] addresses galectin-9 on the cell surface of the CRL-2134 cell line (human) (UniProt O00182). Nature of the test: flow cytometry, saturation curve on CRL-2134 cells.
Test [5] addresses mouse Galectin-9 CRD2 (residues 226-353) (mouse) (UniProt O08573). Nature of the test: biolayer interferometry, G9.2-17 captured on anti-Fab probes, mouse gal-9 CRD2 in solution, global fit.
Test [6] addresses galectin-9 on the cell surface of the CRL-2134 cell line (human) (UniProt O00182). Kind of test: cell based binding, flow cytometry on CRL-2134 cells.

recombinant, full length human Galectin-9 (R&D Systems 2045-GA) (human), sequence (O00182 other isoform, or with tags, fused parts or gaps limits assumed): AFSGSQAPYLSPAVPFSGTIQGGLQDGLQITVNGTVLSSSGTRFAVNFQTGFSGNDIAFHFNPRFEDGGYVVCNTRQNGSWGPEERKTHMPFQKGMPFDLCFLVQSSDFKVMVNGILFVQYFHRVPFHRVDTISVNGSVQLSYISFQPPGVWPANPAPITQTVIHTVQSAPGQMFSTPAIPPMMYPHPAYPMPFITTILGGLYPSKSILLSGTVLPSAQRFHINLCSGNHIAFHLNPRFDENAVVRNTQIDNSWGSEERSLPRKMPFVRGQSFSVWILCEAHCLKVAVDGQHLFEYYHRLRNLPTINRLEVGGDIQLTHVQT

B1: G9.2-17 human IgG4 (antibody, V domains shown)
VH: EVQLVESGGGLVQPGGSLRLSCAASGFTVSSSSIHWVRQAPGKGLEWVAYISSSSGYTYYADSVKGRFTISADTSKNTAYLQMNSLRAEDTAVYYCARYWSYPSWWPYRGMDYWGQGTLVTVSS
VL: DIQMTQSPSSLSASVGDRVTITCRASQSVSSAVAWYQQKPGKAPKLLIYSASSLYSGVPSRFSGSRSGTDFTLTISSLQPEDFATYYCQQSSTDPITFGQGTKVEIKR
On to B1, for which, in test [1], the MOLM-13 T cell apoptosis assay stood at 10%. Further, the Kd in test [2] was found to be 0.3 nM; in test [3] it was 1.8 nM; in test [4], 0.41 nM; in test [5], 1.6 nM.

B2: G9.2-17 mIgG1 (antibody, V domains shown)
VH: B1 VH
VL: B1 VL
As to B2, the Kd in test [2] was 0.3 nM; in test [3] it was 3.05 nM; in test [4], 2.9 nM; in test [6], 2.91 nM.
